# According to US20240269235A1 (Gilead, published 2024):
# T1: human IL-2Rα on Treg cells (CD3+, CD4+, CD25hi, FoxP3+) of human PBMC (human, UniProt P01589 22-272)
# T1 sequence (looked up): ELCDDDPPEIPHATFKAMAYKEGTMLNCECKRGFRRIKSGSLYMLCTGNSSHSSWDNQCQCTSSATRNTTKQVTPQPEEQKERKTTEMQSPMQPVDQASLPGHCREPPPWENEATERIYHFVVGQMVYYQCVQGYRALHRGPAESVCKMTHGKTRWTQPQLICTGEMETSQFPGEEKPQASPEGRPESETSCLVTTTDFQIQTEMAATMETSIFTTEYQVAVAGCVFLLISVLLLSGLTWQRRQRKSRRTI
# T2: IL-2Rαβγ on KHYG-1 cells (human NK leukemia cell line that expresses IL-2Rα, β, and γ) (human, UniProt P01589 22-272; P14784 27-551; P31785 23-369)
# T2 sequence (looked up) 1: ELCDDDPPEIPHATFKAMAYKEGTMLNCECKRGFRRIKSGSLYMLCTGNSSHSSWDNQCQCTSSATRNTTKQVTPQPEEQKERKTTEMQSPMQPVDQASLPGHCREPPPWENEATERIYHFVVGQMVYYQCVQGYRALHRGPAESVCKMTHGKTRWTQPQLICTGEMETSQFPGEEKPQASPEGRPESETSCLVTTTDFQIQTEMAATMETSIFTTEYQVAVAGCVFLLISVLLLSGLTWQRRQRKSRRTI
# T2 sequence (looked up) 2: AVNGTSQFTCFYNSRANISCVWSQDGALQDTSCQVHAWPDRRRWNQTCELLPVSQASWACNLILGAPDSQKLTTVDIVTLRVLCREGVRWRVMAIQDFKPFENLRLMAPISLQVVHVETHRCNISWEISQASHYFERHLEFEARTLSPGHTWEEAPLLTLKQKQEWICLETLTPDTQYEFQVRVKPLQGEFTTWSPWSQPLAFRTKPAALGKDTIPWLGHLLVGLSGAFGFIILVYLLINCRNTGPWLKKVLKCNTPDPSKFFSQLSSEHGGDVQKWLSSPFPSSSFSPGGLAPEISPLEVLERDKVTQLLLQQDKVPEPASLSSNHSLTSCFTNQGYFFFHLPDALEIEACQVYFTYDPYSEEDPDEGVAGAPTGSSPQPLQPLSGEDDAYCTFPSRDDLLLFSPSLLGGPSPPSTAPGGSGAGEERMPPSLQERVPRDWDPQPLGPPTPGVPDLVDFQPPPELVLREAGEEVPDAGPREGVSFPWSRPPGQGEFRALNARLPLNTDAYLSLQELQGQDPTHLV
# T2 sequence (looked up) 3: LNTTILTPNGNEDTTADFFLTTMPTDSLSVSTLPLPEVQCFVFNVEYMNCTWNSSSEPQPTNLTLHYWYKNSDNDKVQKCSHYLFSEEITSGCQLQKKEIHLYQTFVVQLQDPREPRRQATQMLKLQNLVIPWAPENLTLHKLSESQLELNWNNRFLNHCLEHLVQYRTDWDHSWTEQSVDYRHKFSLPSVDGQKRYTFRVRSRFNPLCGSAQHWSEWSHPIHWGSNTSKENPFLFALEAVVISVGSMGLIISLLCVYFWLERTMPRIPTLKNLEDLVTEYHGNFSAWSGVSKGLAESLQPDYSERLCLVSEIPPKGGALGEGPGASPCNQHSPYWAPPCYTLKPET
# T3: IL-2Rα (recombinant IL-2 receptor α, R&D Systems Cat #: 223-2A/CF), biotinylated (human, UniProt P01589 22-213, limits assumed, biotinylated using sulfo-NHS-LC-LC-Biotin)
# T3 construct: Bought reagent; also used here as the IL-2Rα partner of the in-silico analysis of PDB 2B5I (another construct); also called IL-2RA; CD25
# T3 sequence (looked up): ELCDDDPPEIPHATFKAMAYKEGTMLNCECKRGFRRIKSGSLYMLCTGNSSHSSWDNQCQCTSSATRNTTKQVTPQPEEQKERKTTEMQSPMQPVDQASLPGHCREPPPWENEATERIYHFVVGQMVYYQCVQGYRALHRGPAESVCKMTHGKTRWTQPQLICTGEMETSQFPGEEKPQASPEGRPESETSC
# T4: IL-2Rβ (recombinant IL-2 receptor β, R&D Systems Cat #:224-2B-025/CF), biotinylated (UniProt P14784 27-239, limits assumed, biotinylated using sulfo-NHS-LC-LC-Biotin)
# T4 construct: Bought reagent; also called IL-2RB; CD122
# T4 sequence (looked up): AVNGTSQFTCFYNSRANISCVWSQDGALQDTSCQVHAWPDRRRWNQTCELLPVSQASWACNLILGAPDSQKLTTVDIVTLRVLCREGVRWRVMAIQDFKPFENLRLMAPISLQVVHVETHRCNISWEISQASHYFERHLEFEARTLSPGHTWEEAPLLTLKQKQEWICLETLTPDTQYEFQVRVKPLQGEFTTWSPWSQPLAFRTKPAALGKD
# B1: Fc-IL-2 heterodimer 117.46 (hIL-2v_Δ1-5_C125S), native IL-2Rα binding interface (Fc fusion)
# chain 1: ESKYGPPCPPCPAPEAAGGPSVFLFPPKPKDTLMISRTPEVTCVVVDVSQEDPEVQFNWYVDGVEVHNAKTKPREEQFNSTYRVVSVLTVLHQDWLNGKEYKCKVSNKGLPSSIEKTISKAKGQPREPQVYTLPPSQEEMTKNQVSLWCLVKGFYPSDIAVEWESNGQPENNYKTTPPVLDSDGSFFLYSRLTVDKSRWQEGNVFSCSVMHEALHNHYTQKSLSLSLGGGGGSGGGGSGGGGSGGGGSSTKKTQLQLEHLLLDLQMILNGINNYKNPKLTRMLTFKFYMPKKATELKHLQCLEEELKPLEEVLNLAQSKNFHLRPRDLISNINVIVLELKGSETTFMCEYADETATIVEFLNRWITFSQSIISTLT
# chain 2: ESKYGPPCPPCPAPEAAGGPSVFLFPPKPKDTLMISRTPEVTCVVVDVSQEDPEVQFNWYVDGVEVHNAKTKPREEQFNSTYRVVSVLTVLHQDWLNGKEYKCKVSNKGLPSSIEKTISKAKGQPREPQVYTLPPSQEEMTKNQVSLSCAVKGFYPSDIAVEWESNGQPENNYKTTPPVLDSDGSFFLVSRLTVDKSRWQEGNVFSCSVMHEALHNRFTQKSLSLSLGK
# notes: hIgG4 knob-in-hole Fc heterodimer
# Tests used:
# [1] = molecular target: T1, human IL-2Rα on Treg cells (CD3+, CD4+, …); experiment: cell-based or functional assay
# [2] = molecular target: T2, IL-2Rαβγ on KHYG-1 cells (human NK …); experiment: cell-based or functional assay
# [3] = molecular target: T3, IL-2Rα (recombinant IL-2 receptor α, …); experiment: SPR (Biacore), C1 or CM5 chip, biotinylated receptor on neutravidin
# From the text: (§1) Data for binding of Fc-IL-2 variant fusion proteins to IL-2Rα, IL-2Rβ and IL-2Rβγ heterodimer were collected on a Biacore platform using either C1 or CM5 chips. Neutravidin was immobilized using standard amine coupling methods and used to capture biotinylated receptors. Commercially sourced IL-2Rα (R&D Systems Cat #: 223-2A/CF) and IL-2Rβ receptors (R&D Systems Cat #:224-2B-025/CF) were biotinylated using sulfo-NHS-LC-LC-Biotin, desalted, and then captured on the neutravidin surfaces. […] Distinct purification tags were appended to the C-terminus of each chain. A FLAG epitope tag ([…]; SEQ ID NO: 257) was added at the C-terminus of IL-2Rβ subunit, followed by C-terminal Hiss tag ([…]; SEQ ID NO: 258). An AviTag™ ([…]; SEQ ID NO: 259) motif on the IL-2Rγ subunit allowed for site-specific biotinylation of the heterodimer.
# (§2) Fc IL 2 fusion protein variants, Fc protein, and Proleukin were injected at various concentrations over these surfaces. Kinetic data obtained from these injections was used to extract kₒₙ and koff to calculate KD (KD=koff/kₒₙ). Experiments were run at 25° C. in HBS-EP+ running buffer (10 mM HEPES, 150 mM NaCl, 3 mM EDTA, 0.05% Tween20, pH 7.4 with 0.1 mg/ml BSA). Data shown in Table 5 for Fc IL-2 fusion protein variants binding to the indicated IL-2R surfaces were derived from the global fitting of data obtained from 2-5 independent surfaces.
# [4] = molecular target: T4, IL-2Rβ (recombinant IL-2 receptor β, …); experiment: as above
# From the text: as §1, §2
# [5] = molecular target: T5, IL-2Rβγ heterodimer, custom biotinylated Fc fusion protein (human IL-2Rβ 27-240-Fc-FLAG / human IL-2Rγ … (human, site-specific biotinylation at the AviTag)); experiment: as above
# T5 construct: Extracellular regions fused to IgG1 knob-in-hole Fc subunits with tags; also called IL-2 receptor βγ heterodimer; Fc-IL-2Rβγ
# T5 sequence (chain, as listed by the source limits assumed): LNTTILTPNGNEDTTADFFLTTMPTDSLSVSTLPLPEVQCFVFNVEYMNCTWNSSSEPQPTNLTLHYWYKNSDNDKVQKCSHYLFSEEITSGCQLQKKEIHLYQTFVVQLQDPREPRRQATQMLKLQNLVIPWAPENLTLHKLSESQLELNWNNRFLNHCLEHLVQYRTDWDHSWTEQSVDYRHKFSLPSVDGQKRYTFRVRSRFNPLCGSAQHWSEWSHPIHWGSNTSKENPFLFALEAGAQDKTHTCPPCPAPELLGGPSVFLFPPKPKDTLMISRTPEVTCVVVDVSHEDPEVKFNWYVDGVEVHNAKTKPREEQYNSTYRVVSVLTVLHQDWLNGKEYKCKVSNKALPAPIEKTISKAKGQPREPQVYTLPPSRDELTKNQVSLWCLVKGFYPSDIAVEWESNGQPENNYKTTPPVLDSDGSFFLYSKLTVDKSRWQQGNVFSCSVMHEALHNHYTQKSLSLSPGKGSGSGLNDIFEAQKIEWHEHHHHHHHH
# From the text: as §1, §2
binder,measurement,setting,value
B1,"Treg EC50, STAT5 activation (PBMC STAT5 assay)",[1],< 0.001 nM
same,"Proliferation of KHYG-1 NK cells, EC50",[2],0.016 nM
same,Kd,[3],15 nM
same,Kd,[4],7000 nM
same,Kd,[5],0.142 nM
